Results from publication PMC10397247.
Blank lines part the entries; values can stand above or below the binder they belong to.

Legend:
4H40-bN = biological target: T1, 4H40-bN; assay: two-hybrid library CCNG1;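 also: natural log of median RNA to DNA barcode read ratio; higher means stronger binding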
T1 chain: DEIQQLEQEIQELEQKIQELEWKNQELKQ

4H2503-bN = biological target: T2, 4H2503-bN; assay: two-hybrid library CCNG1;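 also: natural log of median RNA to DNA barcode read ratio; higher means stronger binding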
T2 chain: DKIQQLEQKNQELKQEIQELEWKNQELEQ

4H348-bN = biological target: T3, 4H348-bN; assay: two-hybrid library CCNG1;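 also: natural log of median RNA to DNA barcode read ratio; higher means stronger binding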
T3 chain: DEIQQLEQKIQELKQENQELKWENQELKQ

4H2438-bN = biological target: T4, 4H2438-bN; assay: two-hybrid library CCNG1;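 also: natural log of median RNA to DNA barcode read ratio; higher means stronger binding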
T4 chain: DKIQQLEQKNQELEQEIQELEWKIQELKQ

4H741-bN = biological target: T5, 4H741-bN; assay: two-hybrid library CCNG1;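 also: natural log of median RNA to DNA barcode read ratio; higher means stronger binding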
T5 chain: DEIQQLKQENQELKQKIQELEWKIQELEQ

4H319-bN = biological target: T6, 4H319-bN; assay: two-hybrid library CCNG1;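 also: natural log of median RNA to DNA barcode read ratio; higher means stronger binding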
T6 chain: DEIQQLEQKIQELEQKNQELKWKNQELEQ

4H2692-bN = biological target: T7, 4H2692-bN; assay: two-hybrid library CCNG1
T7 chain: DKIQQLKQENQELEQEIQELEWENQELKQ

4H2717-bN = biological target: T8, 4H2717-bN; assay: two-hybrid library CCNG1
T8 chain: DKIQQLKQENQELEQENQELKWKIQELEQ

4H2588-bN = biological target: T9, 4H2588-bN; assay: two-hybrid library CCNG1
T9 chain: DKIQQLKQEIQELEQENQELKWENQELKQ

4H2473-bN = biological target: T10, 4H2473-bN; assay: two-hybrid library CCNG1
T10 chain: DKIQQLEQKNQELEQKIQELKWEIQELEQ

4H492-bN = biological target: T11, 4H492-bN; assay: two-hybrid library CCNG1
T11 chain: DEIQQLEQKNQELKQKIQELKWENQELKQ

4H3277-bN = biological target: T12, 4H3277-bN; assay: two-hybrid library CCNG1
T12 chain: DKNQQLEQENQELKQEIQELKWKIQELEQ

4H2839-bN = biological target: T13, 4H2839-bN; assay: two-hybrid library CCNG1
T13 chain: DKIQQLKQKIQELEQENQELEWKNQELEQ

4H3926-bH = biological target: T14, 4H3926-bH; assay: two-hybrid library CCNG1
T14 chain: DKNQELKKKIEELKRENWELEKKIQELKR

4H2915-bN = biological target: T15, 4H2915-bN; assay: two-hybrid library CCNG1
T15 chain: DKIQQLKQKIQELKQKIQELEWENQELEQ

4H477-bN = biological target: T16, 4H477-bN; assay: two-hybrid library CCNG1
T16 chain: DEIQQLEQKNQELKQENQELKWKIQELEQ

4H3057-bN = biological target: T17, 4H3057-bN; assay: two-hybrid library CCNG1
T17 chain: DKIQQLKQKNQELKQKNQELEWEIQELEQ

4H_GCN4 = assay: two-hybrid library CCmax
4H3705-AA = biological target: T18, 4H3705-AA; assay: two-hybrid library CCmax; settings: mean of both orientations
T18 chain: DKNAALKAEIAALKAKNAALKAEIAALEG

4H3651-AA = biological target: T19, 4H3651-AA; assay: two-hybrid library CCmax; settings: mean of both orientations
T19 chain: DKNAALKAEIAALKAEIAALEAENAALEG

4H355-AA = biological target: T20, 4H355-AA; assay: two-hybrid library CCmax; settings: mean of both orientations
T20 chain: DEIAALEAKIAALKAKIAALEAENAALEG

4H58-AA = biological target: T21, 4H58-AA; assay: two-hybrid library CCmax; settings: mean of both orientations
T21 chain: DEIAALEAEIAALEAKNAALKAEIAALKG

4H535-AA = biological target: T22, 4H535-AA; assay: two-hybrid library CCmax; settings: mean of both orientations
T22 chain: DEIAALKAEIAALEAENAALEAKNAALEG

4H_BCR = biological target: T23, 4H_BCR; assay: two-hybrid library CCmax; settings: mean of both orientations
T23 chain: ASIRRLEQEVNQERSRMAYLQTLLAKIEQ

4H2721-AA = biological target: T24, 4H2721-AA; assay: two-hybrid library CCmax; settings: mean of both orientations
T24 chain: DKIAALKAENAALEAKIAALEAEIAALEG

4H3020-AA = biological target: T25, 4H3020-AA; assay: two-hybrid library CCmax; settings: mean of both orientations
T25 chain: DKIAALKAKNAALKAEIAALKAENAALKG

4H2898-AA = biological target: T26, 4H2898-AA; assay: two-hybrid library CCmax; settings: mean of both orientations
T26 chain: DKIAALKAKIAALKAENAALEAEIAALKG

4H486-AA = biological target: T27, 4H486-AA; assay: two-hybrid library CCmax; settings: mean of both orientations
T27 chain: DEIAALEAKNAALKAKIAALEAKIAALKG

4H_APH = biological target: T28, 4H_APH; assay: two-hybrid library CCmax
T28 chain: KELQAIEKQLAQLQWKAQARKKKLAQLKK

4H3365-AA = biological target: T29, 4H3365-AA; assay: two-hybrid library CCmax; settings: mean of both orientations
T29 chain: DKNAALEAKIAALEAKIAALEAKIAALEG

4H3782-AA = biological target: T30, 4H3782-AA; assay: two-hybrid library CCmax; settings: mean of both orientations
T30 chain: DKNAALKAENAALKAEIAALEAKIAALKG

GCN2_T = assay: two-hybrid library CCmax
4H2600-AA = biological target: T31, 4H2600-AA; assay: two-hybrid library CCmax
T31 chain: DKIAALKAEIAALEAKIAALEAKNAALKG

4H895-AA = biological target: T32, 4H895-AA; assay: two-hybrid library CCmax; settings: mean of both orientations
T32 chain: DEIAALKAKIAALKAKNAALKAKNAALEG

4H465-AA = biological target: T33, 4H465-AA; assay: two-hybrid library CCmax; settings: mean of both orientations
T33 chain: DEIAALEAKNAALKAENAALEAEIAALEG

4H2750-AA = biological target: T34, 4H2750-AA; assay: two-hybrid library CCmax; settings: mean of both orientations
T34 chain: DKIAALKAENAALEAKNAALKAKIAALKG

APC4264-AA = biological target: T35, APC4264-AA; assay: two-hybrid library CCmax; settings: mean of both orientations
T35 chain: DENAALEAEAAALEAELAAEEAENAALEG

APC2405-AA = biological target: T36, APC2405-AA; assay: two-hybrid library CCmax; settings: mean of both orientations
T36 chain: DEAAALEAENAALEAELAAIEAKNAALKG

APC1434-AA = biological target: T37, APC1434-AA; assay: two-hybrid library CCmax; settings: mean of both orientations
T37 chain: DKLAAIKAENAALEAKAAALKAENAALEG

APC7099-AA = biological target: T38, APC7099-AA; assay: two-hybrid library CCmax; settings: mean of both orientations
T38 chain: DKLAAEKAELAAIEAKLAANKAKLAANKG

APC8191-AA = biological target: T39, APC8191-AA; assay: two-hybrid library CCmax; settings: mean of both orientations
T39 chain: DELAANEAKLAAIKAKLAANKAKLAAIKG

APC4436-AA = biological target: T40, APC4436-AA; assay: two-hybrid library CCmax; settings: mean of both orientations
T40 chain: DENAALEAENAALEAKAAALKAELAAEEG

APC3645-AA = biological target: T41, APC3645-AA; assay: two-hybrid library CCmax; settings: mean of both orientations
T41 chain: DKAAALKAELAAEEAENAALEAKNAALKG

4H807-AA = biological target: T42, 4H807-AA; assay: two-hybrid library CCmax; settings: mean of both orientations
T42 chain: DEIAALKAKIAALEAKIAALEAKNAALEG

4H733-AA = biological target: T43, 4H733-AA; assay: two-hybrid library CCmax; settings: mean of both orientations
T43 chain: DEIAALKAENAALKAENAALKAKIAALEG

APC9319-AA = biological target: T44, APC9319-AA; assay: two-hybrid library CCmax; settings: mean of both orientations
T44 chain: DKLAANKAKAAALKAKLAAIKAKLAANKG

APC232-AA = biological target: T45, APC232-AA; assay: two-hybrid library CCmax; settings: mean of both orientations
T45 chain: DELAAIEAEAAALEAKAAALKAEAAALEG

APC8910-AA = biological target: T46, APC8910-AA; assay: two-hybrid library CCmax; settings: mean of both orientations
T46 chain: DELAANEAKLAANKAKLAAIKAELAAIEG

APC2237-AA = biological target: T47, APC2237-AA; assay: two-hybrid library CCmax; settings: mean of both orientations
T47 chain: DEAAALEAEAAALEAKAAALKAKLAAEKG

APC9096-AA = biological target: T48, APC9096-AA; assay: two-hybrid library CCmax; settings: mean of both orientations
T48 chain: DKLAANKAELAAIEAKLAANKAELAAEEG

4H3330-AA = biological target: T49, 4H3330-AA; assay: two-hybrid library CCmax; settings: mean of both orientations
T49 chain: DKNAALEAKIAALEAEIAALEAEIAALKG

APC1015-AA = biological target: T50, APC1015-AA; assay: two-hybrid library CCmax; settings: mean of both orientations
T50 chain: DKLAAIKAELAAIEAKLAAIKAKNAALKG

APC6108-AA = biological target: T51, APC6108-AA; assay: two-hybrid library CCmax; settings: mean of both orientations
T51 chain: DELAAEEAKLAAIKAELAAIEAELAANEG

4H2458-AA = biological target: T52, 4H2458-AA; assay: two-hybrid library CCmax
T52 chain: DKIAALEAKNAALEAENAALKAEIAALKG

4H716-AA = biological target: T53, 4H716-AA; assay: two-hybrid library CCmax; settings: mean of both orientations
T53 chain: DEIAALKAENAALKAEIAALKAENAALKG

APC5383-AA = biological target: T54, APC5383-AA; assay: two-hybrid library CCmax; settings: mean of both orientations
T54 chain: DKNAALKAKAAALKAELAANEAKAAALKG

APC4011-AA = biological target: T55, APC4011-AA; assay: two-hybrid library CCmax; settings: mean of both orientations
T55 chain: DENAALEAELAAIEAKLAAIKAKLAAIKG

Chain of 4H_GCN4 (chain, as listed by the source): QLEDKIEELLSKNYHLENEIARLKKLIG

interaction score (4H40-bN): -0.693
interaction score (4H2503-bN): 0.452
interaction score (4H348-bN): -1.05
interaction score (4H2438-bN): 1.09
interaction score (4H741-bN): -0.278
interaction score (4H319-bN): -0.63
interaction score (4H2692-bN): -1.41
interaction score (4H2717-bN): -0.613
interaction score (4H2588-bN): -0.403
interaction score (4H2473-bN): 1.05
interaction score (4H492-bN): 0.204
interaction score (4H3277-bN): -0.843
interaction score (4H2839-bN): -1.05
interaction score (4H3926-bH): -4.14
interaction score (4H2915-bN): 2
interaction score (4H477-bN): 0.509
interaction score (4H3057-bN): 2.19
B1: 4H2438-bN (peptide)
chain: DKIQQLEQKNQELEQEIQELEWKIQELKQ

interaction score (4H_GCN4): -1.63
interaction score (4H3705-AA): 0.21
interaction score (4H3651-AA): 0.646
interaction score (4H355-AA): 2.12
interaction score (4H58-AA): 0.179
interaction score (4H535-AA): -0.657
interaction score (4H_BCR): -1.4
interaction score (4H2721-AA): -0.793
interaction score (4H3020-AA): -0.911
interaction score (4H2898-AA): 0.0245
interaction score (4H486-AA): 0.497
interaction score (4H_APH): -1.47
interaction score (4H3365-AA): -0.236
interaction score (4H3782-AA): -1.12
interaction score (GCN2_T): -1.38
interaction score (4H2600-AA): 1.58
interaction score (4H895-AA): -0.393
interaction score (4H465-AA): -1.72
interaction score (4H2750-AA): -1.65
B2: 4H2600-AA (peptide)
chain: DKIAALKAEIAALEAKIAALEAKNAALKG

interaction score (APC4264-AA): -1.79
interaction score (APC2405-AA): -1.59
interaction score (APC1434-AA): -1.22
interaction score (APC7099-AA): -1.31
interaction score (APC8191-AA): -2.11
interaction score (APC4436-AA): -1.67
interaction score (APC3645-AA): -1.47
interaction score (4H807-AA): -1.17
interaction score (4H733-AA): -1.61
interaction score (APC9319-AA): -2.07
interaction score (APC232-AA): -1.85
interaction score (APC8910-AA): -1.49
interaction score (APC2237-AA): -1.44
interaction score (APC9096-AA): -1.34
interaction score (4H3330-AA): -1.38
interaction score (APC1015-AA): -1.95
interaction score (APC6108-AA): -1.71
interaction score (4H2458-AA): 2.24
interaction score (4H716-AA): -0.991
interaction score (APC5383-AA): -1.7
interaction score (APC4011-AA): -0.914
B3: 4H2458-AA (peptide)
chain: DKIAALEAKNAALEAENAALKAEIAALKG
